According to publication PMC7417313 (2020):

Biological target: C3b C3b (Homo sapiens, UniProt P01024)
Test: SPR

Sequence of C3b C3b (P01024 566-670): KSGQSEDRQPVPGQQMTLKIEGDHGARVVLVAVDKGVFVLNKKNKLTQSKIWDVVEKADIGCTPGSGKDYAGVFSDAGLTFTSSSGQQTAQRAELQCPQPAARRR

- Kd: 100 nM
B1: Factor H (protein)
chain: EDCNELPPRRNTEILTGSWSDQTYPEGTQAIYKCRPGYRSLGNVIMVCRKGEWVALNPLRKCQKRPCGHPGDTPFGTFTLTGGNVFEYGVKAVYTCNEGYQLLGEINYRECDTDGWTNDIPICEVVKCLPVTAPENGKIVSSAMEPDREYHFGQAVRFVCNSGYKIEGDEEMHCSDDGFWSKEKPKCVEISCKSPDVINGSPISQKIIYKENERFQYKCNMGYEYSERGDAVCTESGWRPLPSCEEKSCDNPYIPNGDYSPLRIKHRTGDEITYQCRNGFYPATRGNTAKCTSTGWIPAPRCTLKPCDYPDIKHGGLYHENMRRPYFPVAVGKYYSYYCDEHFETPSGSYWDHIHCTQDGWSPAVPCLRKCYFPYLENGYNQNYGRKFVQGKSIDVACHPGYALPKAQTTVTCMENGWSPTPRCIRVKTCSKSSIDIENGFISESQYTYALKEKAKYQCKLGYVTADGETSGSITCGKDGWSAQPTCIKSCDIPVFMNARTKNDFTWFKLNDTLDYECHDGYESNTGSTTGSIVCGYNGWSDLPICYERECELPKIDVHLVPDRKKDQYKVGEVLKFSCKPGFTIVGPNSVQCYHFGLSPDLPICKEQVQSCGPPPELLNGNVKEKTKEEYGHSEVVEYYCNPRFLMKGPNKIQCVDGEWTTLPVCIVEESTCGDIPELEHGWAQLSSPPYYYGDSVEFNCSESFTMIGHRSITCIHGVWTQLPQCVAIDKLKKCKSSNLIILEEHLKNKKEFDHNSNIRYRCRGKEGWIHTVCINGRWDPEVNCSMAQIQLCPPPPQIPNSHNMTTTLNYRDGEKVSVLCQENYLIQEGEEITCKDGRWQSIPLCVEKIPCSQPPQIEHGTINSSRSSQESYAHGTKLSYTCEGGFRISEENETTCYMGKWSSPPQCEGLPCKSPPEISHGVVAHMSDSYQYGEEVTYKCFEGFGIDGPAIAKCLGEKWSHPPSCIKTDCLSLPSFENAIPMGEKKDVYKAGEQVTYTCATYYKMDGASNVTCINSRWTGRPTCRDTSCVNPPTVQNAYIVSRQMSKYPSGERVRYQCRSPYEMFGDEEVMCLNGNWTEPPQCKDSTGKCGPPPPIDNGDITSFPLSVYAPASSVEYQCQNLYQLEGNKRITCRNGQWSEPPKCLHPCVISREIMENYNIALRWTAKQKLYSRTGESVEFVCKRGYRLSSRSHTLRTTCWDGKLEYPTCAKR
